From patent publication US7326418B2, “Identification of novel factors that block programmed cell death or apoptosis by targeting JNK” (University of Chicago, priority 2001, dated 2008)
Ends that are not written are not given here.

Assays:
[1] = target: T1, GST-MKK7 (Homo sapiens, UniProt O14733, Q133P/Q94H); assay: GST pull-down, GST-MKK7-coated beads with in vitro-translated Gadd45β products; type: binding
T1 construct: made in house; host or cells: E. coli BL21
T1 sequence (O14733 1-401 Q94H/Q133P limits assumed): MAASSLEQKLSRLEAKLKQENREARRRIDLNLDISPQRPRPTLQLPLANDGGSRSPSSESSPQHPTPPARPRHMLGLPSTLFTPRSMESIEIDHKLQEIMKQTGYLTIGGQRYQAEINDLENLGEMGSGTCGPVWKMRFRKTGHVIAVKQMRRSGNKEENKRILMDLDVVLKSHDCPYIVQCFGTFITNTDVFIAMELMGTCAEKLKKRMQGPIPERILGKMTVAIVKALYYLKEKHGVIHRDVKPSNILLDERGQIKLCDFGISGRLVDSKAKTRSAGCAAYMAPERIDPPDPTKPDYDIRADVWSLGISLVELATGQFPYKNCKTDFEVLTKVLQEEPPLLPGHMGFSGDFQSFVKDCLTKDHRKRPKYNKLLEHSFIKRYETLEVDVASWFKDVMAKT
Experimental: GST pull-down assays were performed using GST- or GST-MKK7-coated beads and in vitro-translated, Gadd45β products corresponding to the polypeptidic fragments indicated in FIG. 36A.
To generate Gadd45β polypeptides, in vitro reactions were primed with pBS-GFP-Gadd450 plasmids, encoding green fluorescent protein (GFP) directly fused to FL or truncated Gadd45β. To obtain these plasmids, pBS-Gadd45β(FL), pBS-Gadd45β (41-160), pBS-Gadd45 (60-160), pBS-Gadd45β (69-160), pBS-Gadd45β (87-160), and pBS-Gadd45β (113-160)—encoding the corresponding amino acid residues of murine Gadd45β were generated—by cloning appropriate gadd45β cDNA fragments into the XhoI and HindIII sites of pBS SK−. These plasmids, encoding either FL or truncated Gadd45β, were then opened with KpnI and XhoI, and the excised DNA fragments were replaced with the KpnI-BsrGI fragment of pEGFP-N1 (Clontech; containing the GFP-coding sequence) directly joined to the following oligonucleotide linker: 5′-[…]-3′ (SEQ ID NO: 48). These constructs were designated as pBS-GFP-Gadd45β. Gadd45β C-terminal deletions were obtained as described for the JNKK2 deletions by using pBS-GFP-Gadd45β(FL) that had been digested with the NgoMI, SphI, or EcoRV restriction enzymes to direct protein synthesis in vitro. These plasmids encoded the 1-134, 1-95, and 1-68 amino acid fragments of Gadd45β, respectively. […]

[2] = test system: wild-type MEFs; assay: Apoptosis assay with TAT peptides, wild-type MEFs; type: cell-based, mouse; details: HIV-TAT-fused peptides; MEFs at passage 4
From the text: (§1) A-B, Apoptosis assays showing that peptide 1 effectively promotes killing by TNFα in IκBαM-Gadd45β and Neo 3DO clones, respectively. C-D, Apoptosis assays showing that both peptide 1 and peptide 2 can facilitate TNFα-induced cytotoxicity in wild-type MEFs, and that only peptide 2 promotes this killing in Gadd45β null MEFs, respectively. (C-D), MEFs were from twin embryos and were used at passage (p)4. A-D, Values (expressed as arbitrary units) were obtained by subtracting background values with untreated cells from values with TNFα-treated cells, and represent the mean (+/−standard deviation) of three experiments.
(§2) Treatments were as follows: murine TNFα (Peprotech), 1,000 U/ml, 10 U/ml, or 1,000 U/ml plus 0.3 μg/ml cycloheximide (CHX; FIG. 33); human TNFα (Peprotech), 2,000 U/ml; PMA plus ionomycin (Sigma), 100 ng/ml and 1 μM, respectively. Treatments with H2O2 and sorbitol were as described previously. In FIG. 33, pre-treatment with HIV-TAT peptides (5 μM) or DMSO was for 30 minutes and incubation with TNFα was for an additional 4 and 3.5 hours, respectively. In FIG. 33, peptides were used at 10 μM and incubation with TNFα was for 4 hours. Apoptosis was measured by using the Cell Death Detection ELISA PLUS kit (Roche). […]

[3] = test system: gadd45β−/− MEFs; assay: Apoptosis assay with TAT peptides, Gadd45β null MEFs; type: cell-based, mouse; details: HIV-TAT-fused peptides; MEFs at passage 4
From the text: as §1, §2

[4] = target: T2, GST-Gadd45β (Mus musculus, UniProt P22339); assay: GST pull-down of in vitro translated MKK7 peptides with GST-Gadd45β; type: binding, murine; details: fused to eGFP
T2 construct: Murine and human, full-length Gadd45J3 proteins were purified from E. coli as GST-Gadd45β and His6-tagged Gadd45β; made in house; host or cells: E. coli BL21 (pGEX-3X)
T2 sequence (P22339 1-160): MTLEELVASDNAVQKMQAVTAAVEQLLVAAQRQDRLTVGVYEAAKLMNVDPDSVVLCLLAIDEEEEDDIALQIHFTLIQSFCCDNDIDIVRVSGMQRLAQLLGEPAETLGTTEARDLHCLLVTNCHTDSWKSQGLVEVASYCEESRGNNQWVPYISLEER

[5] = test system: Neo 3DO cells (NF-κB-proficient); assay: Apoptosis assay (Cell Death Detection ELISA) with TAT peptides, Neo 3DO clones; type: cell-based
Experimental: (§3) FLAG-MKK7 was immunoprecipitated from TNFα-treated (10 minutes) 293 cells. b, c, are apoptosis assays showing that peptide 1 promotes killing by TNFα in IκBαM-Gadd45β and Neo clones, respectively. Values (expressed as arbitrary units) were obtained by subtracting background values with untreated cells from values with TNFα-treated cells, and represent the mean (+/−standard deviation) of three experiments.
A-B, Apoptosis assays showing that peptide 1 effectively promotes killing by TNFα in IκBαM-Gadd45β and Neo 3DO clones, respectively. […] A-D, Values (expressed as arbitrary units) were obtained by subtracting background values with untreated cells from values with TNFα-treated cells, and represent the mean (+/−standard deviation) of three experiments.
Treatments were as follows: murine TNFα (Peprotech), 1,000 U/ml (FIG. 27) or 10 U/ml (FIG. 30); human TNFα (Peprotech), 2,000 U/ml; PMA plus ionomycin (Sigma), 100 ng/ml and 1 μM, respectively. […] Apoptosis was measured by using the Cell Death Detection ELISA^PLUS kit (Roche).
Treatments were as follows: murine TNFα (Peprotech), 1,000 U/ml, 10 U/ml, or 1,000 U/ml plus 0.3 μg/ml cycloheximide (CHX; FIG. 33); human TNFα (Peprotech), 2,000 U/ml; PMA plus ionomycin (Sigma), 100 ng/ml and 1 μM, respectively. […] Apoptosis was measured by using the Cell Death Detection ELISA PLUS kit (Roche). […]

[6] = target: T3, MKK7 inhibition by Gadd45β (Mus musculus, UniProt P22339); assay: MKK7 kinase assay: peptide interference with MKK7 inhibition by Gadd45β; type: biochemical; details: GST-Gadd45β pre-incubated with peptides 20 min; FLAG-MKK7 from TNFα-treated 293 cells
T3 construct: Murine and human, full-length Gadd45J3 proteins were purified from E. coli as GST-Gadd45β and His6-tagged Gadd45β; made in house; host or cells: GST-Gadd45β from E. coli; FLAG-MKK7 immunoprecipitated from transfected, TNFα-treated 293 cells
T3 sequence (P22339 1-160): T2 sequence (P22339 1-160)
Experimental: as §3
To define interaction regions and determine whether they are sufficient for binding, Gadd45β association with overlapping peptides spanning these regions (FIG. 29e) was determined. […] This is reminiscent of the mechanism by which p27^KIP1 inhibits cyclin-dependent kinase (CDK)2. A question explored was whether MKK7, Gadd45β-binding peptides interfered with the Gadd45β ability to suppress kinase activity.
GST precipitations with in vitro-translated proteins or purified proteins (FIG. 26-30), and kinase assays were performed. […] MKK7 phosphorylation was monitored by performing immunoprecipitations with anti-P-MKK7 antibodies (developed at Cell Signaling) followed by Western blots with anti-total MKK7 antibodies. […]

[7] = test system: IκBαM-Gadd45β 3DO cells; assay: Apoptosis assay (Cell Death Detection ELISA) with TAT peptides, IκBαM-Gadd45β 3DO clones; details: for TNFα-induced killing of IκBαM-Gadd45β cells: HIV-TAT-fused peptides 5 μM, 30 min pre-treatment, then TNFα
Experimental: Treatments were as follows: murine TNFα (Peprotech), 1,000 U/ml (FIG. 27) or 10 U/ml (FIG. 30); human TNFα (Peprotech), 2,000 U/ml; PMA plus ionomycin (Sigma), 100 ng/ml and 1 μM, respectively. In FIG. 30, pre-treatment with HIV-TAT peptides (5 μM) or DMSO was for 30 minutes and incubation with TNFα was for an additional 7 and 3.5 hours, respectively. Apoptosis was measured by using the Cell Death Detection ELISA^PLUS kit (Roche).
Treatments were as follows: murine TNFα (Peprotech), 1,000 U/ml, 10 U/ml, or 1,000 U/ml plus 0.3 μg/ml cycloheximide (CHX; FIG. 33); human TNFα (Peprotech), 2,000 U/ml; PMA plus ionomycin (Sigma), 100 ng/ml and 1 μM, respectively. […] In FIG. 33, pre-treatment with HIV-TAT peptides (5 μM) or DMSO was for 30 minutes and incubation with TNFα was for an additional 4 and 3.5 hours, respectively. In FIG. 33, peptides were used at 10 μM and incubation with TNFα was for 4 hours. Apoptosis was measured by using the Cell Death Detection ELISA PLUS kit (Roche).

| Substance | binding to MKK7 in vitro [1] | cytokine (TNFα)-induced toxicity in wild-type fibroblasts [2] | TNFα-induced killing in gadd45β−/− MEFs [3] | binding to GST-Gadd45β [4] | toxicity in untreated Neo cells ([5]; HIV-TAT-fused peptide, no TNFα) | TNFα-induced killing of NF-κB-proficient (Neo) cells ([5]; HIV-TAT-fused peptides 5 μM, 30 min pre-treatment, then TNFα) | prevention of MKK7 inhibition by Gadd45β [6] | basal toxicity in IκBαM-Gadd45β cells ([7]; HIV-TAT-fused peptide, no TNFα) | TNFα-induced killing of IκBαM-Gadd45β cells [7] |
| --- | --- | --- | --- | --- | --- | --- | --- | --- | --- |
| IALQIHFTLIQSFCCDND [69-86 amino acid region of Gadd45β, positions 69-86 of Gadd45β] | sufficient to bind to MKK7 |  |  |  |  |  |  |  |  |
| NH2-TGHVIAVKQMRRSGNKEENKRILMD-COOH (H-TGHVIAVKQMRRSGNKEENKRILMD-OH; listed as Homo sapiens) [peptide 2, aa 142-166 of MKK7/JNKK2] |  | enhanced | retained (and, in fact, enhanced) | does not bind |  |  |  |  |  |
| peptide 1: MKK7 peptide 132-156, Gadd45β-interacting, spans ATP-binding site K149; fused to cell-permeable HIV-TAT peptide for cell assays (GPVWKMRFRKTGHVIAVKQMRRSGN; also: fused to HIV-TAT peptide for cell assays; listed as Homo sapiens) |  | enhanced | completely insensitive | sufficient to recapitulate this binding | minimal toxicity | promoted TNFα-induced killing | prevented MKK7 inhibition by Gadd45β | marginal basal toxicity | markedly increased susceptibility |
| peptide 7: MKK7 peptide 220-234, Gadd45β-interacting; fused to HIV-TAT peptide for cell assays (GKMTVAIVKALYYLK; also: fused to HIV-TAT peptide for cell assays; listed as Homo sapiens) |  |  |  | sufficient to recapitulate this binding |  |  | did not |  | no effect |
